Measured values published in publication PMC3553973.

Biological target: T1, SacUVDE (UV damage endonuclease) (Sulfolobus acidocaldarius, UniProt Q4J9T1 1-289)
T1 sequence: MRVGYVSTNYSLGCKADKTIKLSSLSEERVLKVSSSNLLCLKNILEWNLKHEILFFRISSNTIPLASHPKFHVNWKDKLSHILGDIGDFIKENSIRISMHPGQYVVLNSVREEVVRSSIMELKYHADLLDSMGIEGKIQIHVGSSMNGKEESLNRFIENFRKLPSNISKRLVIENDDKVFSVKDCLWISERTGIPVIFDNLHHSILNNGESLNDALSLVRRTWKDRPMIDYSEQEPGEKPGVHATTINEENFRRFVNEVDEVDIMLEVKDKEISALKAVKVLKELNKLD
Test: X-ray crystallography

B1: 15-mer duplex with 6-4 photoproduct (dsDNA)
DNA 1: GCGTCCTTGACGACG
DNA 2: CGTCGTCAAGGACGC
modifications: 6-4 photoproduct at T7-T8 of strand 1
binding result: binds
